US20210340270A1 (Amgen, published 2021)

Key:
[1] = target: human and rat Jagged-1 (recombinant purified Notch ligands in the ELISA); assay: direct binding ELISA on recombinant purified Notch ligands
[2] = target: murine Jagged-1 stably expressed on 293T cells (mouse, UniProt Q9QXX0 34-1218); assay: cell-based or functional assay
[3] = target: human Jagged-1 expressed on transfected 293 / 293T cells (human, UniProt P78504 34-1218); assay: cell-based or functional assay
[4] = target: T1, Recombinant Human Jagged 1 Fc chimera (R&D Systems Cat #: 1277-M-050) (human, UniProt P78504 32-1046); assay: ELISA, 1 ug/ml ligand coated on the plate, 15D11.1 titrated, absorbance 450 nm; single experiment shown (the text prints only a mean of n = 3)
T1 construct: also called hJAG1 Fc; not shown: Fc part and any linker of the bought chimera not described
Protocol: 15D11.1 was tested for binding to recombinant purified Notch ligands; human Jagged1 Fc (Recombinant Human Jagged 1 Fc chimera—R&D Systems Cat #: 1277-M-050), human Jagged1 His (Human JAG1/Jagged1 His Tag Sino Biological Cat #: 11648-H08H), rat Jagged1 Fc (Recombinant Rat Jagged 1 Fc chimera—R&D Systems—Cat #: 599-JG-050), human Jagged2 (Recombinant Human Jagged 2 Fc chimera—R&D Systems Cat #: 1726-JG-050), murine Jagged2 (Recombinant Mouse Jagged 2 Fc chimera—R&D Systems Cat #: 4748-JG-050), murine Delta-like 1 (Recombinant Mouse DLL1 His tag—Sino Biological Cat #: 50522-M08H-50), human Deltalike 4 (Recombinant Human DLL4 His tag—R&D Systems—Cat #: 1506-D4-050) and murine Deltalike 4 (Recombinant Mouse DLL4 His tag—R&D Systems—Cat #: 1389-D4-050) using a standard enzyme-linked immunosorbent assay (ELISA). […]
(§1) in PBST buffer (PBT buffer (PBS+0.05% (v/v) Tween 20) with 0.5% (w/v) BSA) were added to the plates and incubated for one hour at room temperature. The plates were then washed with PBST and bound antibodies were detected with peroxidase-conjugated goat anti-human Fab specific IgG (Sigma). TMB substrate (3,3′,5,5′-tetramethylbenzidine) was used and absorbance at 450 nm was read using a standard ELISA plate reader. Absorbance was plotted against concentrations of 15D11.1 in FIGS. 8A and 8B.

[5] = target: T2, recombinant human Jagged1 extracellular domain (Met 1-Ser 1046), fused with a polyhistidine tag at the … (human, UniProt P78504 34-1046); assay: Octet Red96 BLI; mAb captured on AHC anti-HuFc biosensors, soluble hJagged1 as analyte; mean of 3 experiments (same KD as r8c2, in nM)
T2 construct: Bought protein; also called hJagged1; soluble recombinant hJagged1; not shown: C-terminal polyhistidine tag
Protocol: (§2) The affinity of the soluble recombinant hJagged1 was determined in Octet platform (Octet Red96) under the manufactures recommended kinetic measurement settings. Briefly, hJagged1 was diluted 1 to 3 from 150 nM to 0.5 nM in Octet buffer (10 mM Tris base, 150 mM NaCl, 1 mM CaCl2, 0.1 mg/ml BSA, 0.1% Triton X100) and 60 ul of this serial diluted samples were taken in 384 well tilted bottom (TW384) black polypropylene microplate (Forte Bio, Cat #18-0019) (sample plate). 3 ug/ml of anti-hJagged1 mAb 15D11.1 present in 60 ul in sample plate was used and captured on AHC—anti-HuFc (Kinetic) biosensors (cat #18-5060). A sample with buffer alone is used as a control.

[6] = target: T3, Recombinant Mouse DLL1 His tag (Sino Biological Cat #: 50522-M08H-50) (mouse, UniProt Q61483 18-540); assay: ELISA, 1 ug/ml ligand coated on the plate, 15D11.1 titrated, absorbance 450 nm
T3 construct: Bought construct; also called murine Delta-like 1; not shown: His tag
Protocol: (§3) 15D11.1 was tested for binding to recombinant purified Notch ligands; human Jagged1 Fc (Recombinant Human Jagged 1 Fc chimera—R&D Systems Cat #: 1277-M-050), human Jagged1 His (Human JAG1/Jagged1 His Tag Sino Biological Cat #: 11648-H08H), rat Jagged1 Fc (Recombinant Rat Jagged 1 Fc chimera—R&D Systems—Cat #: 599-JG-050), human Jagged2 (Recombinant Human Jagged 2 Fc chimera—R&D Systems Cat #: 1726-JG-050), murine Jagged2 (Recombinant Mouse Jagged 2 Fc chimera—R&D Systems Cat #: 4748-JG-050), murine Delta-like 1 (Recombinant Mouse DLL1 His tag—Sino Biological Cat #: 50522-M08H-50), human Deltalike 4 (Recombinant Human DLL4 His tag—R&D Systems—Cat #: 1506-D4-050) and murine Deltalike 4 (Recombinant Mouse DLL4 His tag—R&D Systems—Cat #: 1389-D4-050) using a standard enzyme-linked immunosorbent assay (ELISA). 1 ug/ml of Notch ligand protein (as indicated) in PBS, pH7.4, was coated onto ELISA plates (Nunc Maxisorp) at 4° C. overnight. Plates were blocked with Casein blocker in PBS (Pierce) for one hour at room temperature. Serial 2-fold dilutions of 15D11.1
as §1

[7] = target: T4, Recombinant Mouse DLL4 His tag (R&D Systems Cat #: 1389-D4-050) (mouse, UniProt Q9JI71 28-525); assay: as above
T4 construct: Bought construct; also called murine Deltalike 4; not shown: His tag
Protocol: as §3, §1

[8] = target: T5, Recombinant Mouse Jagged 2 Fc chimera (R&D Systems Cat #: 4748-JG-050) (mouse, UniProt Q9QYE5 27-1082); assay: as above
T5 construct: Bought construct; also called murine Jagged2; not shown: Fc part and any linker of the bought chimera not described
Protocol: as §3, §1

[9] = target: T6, Recombinant Human DLL4 His tag (R&D Systems Cat #: 1506-D4-050) (human, UniProt Q9NR61 27-524); assay: as above
T6 construct: Bought construct; also called human Deltalike 4; not shown: His tag
Protocol: as §3, §1

[10] = target: T7, Recombinant Human Jagged 2 Fc chimera (R&D Systems Cat #: 1726-JG-050) (human, UniProt Q9Y219 27-1080); assay: as above
T7 construct: Bought construct; not shown: Fc part and any linker of the bought chimera not described
Protocol: as §3, §1

[11] = target: T8, Human JAG1/Jagged1 His Tag (Sino Biological Cat #: 11648-H08H) (human, UniProt P78504 34-1046); assay: direct binding ELISA; 1 ug/ml ligand coated, antibody titrated, anti-human Fab-HRP detection (printed as IC50)
T8 construct: also called human Jagged1 His; hJAG1 His; not shown: His tag
Protocol: as §3, §1

[12] = target: T1, Recombinant Human Jagged 1 Fc chimera …; assay: as above
Protocol: as §3, §1

[13] = target: T9, Recombinant Rat Jagged 1 Fc chimera (R&D Systems Cat #: 599-JG-050) (rat, UniProt Q63722 32-1046); assay: as above
T9 construct: Bought construct; also called rJAG1; not shown: Fc part and any linker of the bought chimera not described
Protocol: as §3, §1

[14] = target: T2, recombinant human Jagged1 extracellular …; assay: Octet Red96 BLI; mAb captured on AHC anti-HuFc biosensors, soluble hJagged1 as analyte; mean of 3 experiments
Protocol: as §2

Sequence of murine Jagged-1 stably expressed on 293T cells (Q9QXX0 34-1218): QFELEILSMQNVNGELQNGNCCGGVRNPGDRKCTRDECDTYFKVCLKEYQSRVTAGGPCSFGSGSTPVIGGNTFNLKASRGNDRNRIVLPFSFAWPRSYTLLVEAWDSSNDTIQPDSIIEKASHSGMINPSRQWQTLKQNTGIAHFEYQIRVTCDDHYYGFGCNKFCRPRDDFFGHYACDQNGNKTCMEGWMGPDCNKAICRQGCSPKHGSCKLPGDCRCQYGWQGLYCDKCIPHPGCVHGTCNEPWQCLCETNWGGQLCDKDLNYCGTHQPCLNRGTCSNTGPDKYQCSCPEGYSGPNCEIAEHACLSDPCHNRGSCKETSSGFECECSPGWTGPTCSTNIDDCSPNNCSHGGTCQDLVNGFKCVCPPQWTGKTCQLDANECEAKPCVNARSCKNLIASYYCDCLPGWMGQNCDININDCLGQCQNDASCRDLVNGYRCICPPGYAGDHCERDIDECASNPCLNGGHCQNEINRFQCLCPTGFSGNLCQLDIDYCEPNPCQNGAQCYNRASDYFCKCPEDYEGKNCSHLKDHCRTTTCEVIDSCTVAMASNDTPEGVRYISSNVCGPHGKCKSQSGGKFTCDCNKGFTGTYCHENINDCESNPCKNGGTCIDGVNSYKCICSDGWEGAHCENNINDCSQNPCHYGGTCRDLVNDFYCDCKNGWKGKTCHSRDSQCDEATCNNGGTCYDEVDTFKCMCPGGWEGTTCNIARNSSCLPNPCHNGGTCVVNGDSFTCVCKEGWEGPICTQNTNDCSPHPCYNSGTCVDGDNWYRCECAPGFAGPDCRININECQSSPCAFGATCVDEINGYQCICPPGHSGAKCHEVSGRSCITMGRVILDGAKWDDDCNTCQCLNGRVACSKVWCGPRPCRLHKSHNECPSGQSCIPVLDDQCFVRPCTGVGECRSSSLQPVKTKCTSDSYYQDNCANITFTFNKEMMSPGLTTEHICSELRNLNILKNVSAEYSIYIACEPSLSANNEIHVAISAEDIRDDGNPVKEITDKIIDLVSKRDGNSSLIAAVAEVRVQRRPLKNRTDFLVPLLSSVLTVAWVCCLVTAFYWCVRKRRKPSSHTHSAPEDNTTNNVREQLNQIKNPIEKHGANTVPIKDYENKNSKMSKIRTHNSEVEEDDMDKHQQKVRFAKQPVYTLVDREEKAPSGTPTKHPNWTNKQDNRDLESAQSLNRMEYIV
Sequence of human Jagged-1 expressed on transfected 293 / 293T cells (P78504 34-1218 P227R/N498D limits assumed): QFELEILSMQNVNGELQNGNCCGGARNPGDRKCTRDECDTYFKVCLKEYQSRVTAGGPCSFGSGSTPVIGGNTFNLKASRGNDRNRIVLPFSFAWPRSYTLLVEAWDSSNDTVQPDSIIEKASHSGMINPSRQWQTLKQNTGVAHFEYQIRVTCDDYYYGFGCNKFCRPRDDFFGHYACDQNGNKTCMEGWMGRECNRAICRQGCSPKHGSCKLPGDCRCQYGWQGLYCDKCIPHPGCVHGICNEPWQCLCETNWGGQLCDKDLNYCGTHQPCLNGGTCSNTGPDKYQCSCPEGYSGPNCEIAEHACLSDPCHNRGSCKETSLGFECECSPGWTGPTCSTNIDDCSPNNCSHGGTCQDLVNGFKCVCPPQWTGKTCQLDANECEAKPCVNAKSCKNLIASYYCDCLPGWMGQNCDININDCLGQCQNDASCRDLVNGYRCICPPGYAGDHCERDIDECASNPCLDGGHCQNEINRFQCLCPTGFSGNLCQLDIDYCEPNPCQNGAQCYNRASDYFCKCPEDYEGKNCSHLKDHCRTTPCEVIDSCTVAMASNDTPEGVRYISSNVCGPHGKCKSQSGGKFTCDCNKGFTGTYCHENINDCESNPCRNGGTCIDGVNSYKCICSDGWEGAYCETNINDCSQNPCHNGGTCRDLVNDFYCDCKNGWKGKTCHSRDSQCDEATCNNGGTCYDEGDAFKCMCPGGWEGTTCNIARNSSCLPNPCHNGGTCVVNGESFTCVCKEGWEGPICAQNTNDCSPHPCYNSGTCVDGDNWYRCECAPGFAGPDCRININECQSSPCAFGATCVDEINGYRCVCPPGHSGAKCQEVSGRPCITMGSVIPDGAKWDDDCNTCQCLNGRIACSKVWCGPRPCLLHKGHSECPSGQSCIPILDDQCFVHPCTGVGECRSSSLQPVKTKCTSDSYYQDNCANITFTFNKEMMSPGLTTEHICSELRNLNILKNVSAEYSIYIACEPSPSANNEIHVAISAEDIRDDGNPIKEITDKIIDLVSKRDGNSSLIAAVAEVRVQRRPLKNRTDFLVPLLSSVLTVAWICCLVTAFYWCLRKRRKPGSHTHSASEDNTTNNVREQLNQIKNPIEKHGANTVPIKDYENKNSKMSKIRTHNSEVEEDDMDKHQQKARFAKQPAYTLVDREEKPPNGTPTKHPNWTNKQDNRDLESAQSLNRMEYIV
T6 sequence (Q9NR61 27-524 limits assumed): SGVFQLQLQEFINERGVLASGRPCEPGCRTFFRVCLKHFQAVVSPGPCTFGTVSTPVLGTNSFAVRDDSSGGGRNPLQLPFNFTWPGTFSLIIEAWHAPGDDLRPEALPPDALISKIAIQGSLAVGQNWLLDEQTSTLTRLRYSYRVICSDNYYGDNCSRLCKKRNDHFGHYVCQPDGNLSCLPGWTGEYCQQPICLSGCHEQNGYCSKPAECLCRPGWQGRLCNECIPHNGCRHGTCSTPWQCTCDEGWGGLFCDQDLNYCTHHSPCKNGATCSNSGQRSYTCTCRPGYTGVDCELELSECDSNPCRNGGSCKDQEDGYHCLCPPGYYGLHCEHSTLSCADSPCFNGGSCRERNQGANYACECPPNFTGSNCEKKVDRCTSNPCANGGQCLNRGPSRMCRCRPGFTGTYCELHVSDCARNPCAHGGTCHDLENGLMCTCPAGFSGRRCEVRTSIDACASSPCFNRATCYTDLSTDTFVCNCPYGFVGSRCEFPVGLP
T4 sequence (Q9JI71 28-525 limits assumed): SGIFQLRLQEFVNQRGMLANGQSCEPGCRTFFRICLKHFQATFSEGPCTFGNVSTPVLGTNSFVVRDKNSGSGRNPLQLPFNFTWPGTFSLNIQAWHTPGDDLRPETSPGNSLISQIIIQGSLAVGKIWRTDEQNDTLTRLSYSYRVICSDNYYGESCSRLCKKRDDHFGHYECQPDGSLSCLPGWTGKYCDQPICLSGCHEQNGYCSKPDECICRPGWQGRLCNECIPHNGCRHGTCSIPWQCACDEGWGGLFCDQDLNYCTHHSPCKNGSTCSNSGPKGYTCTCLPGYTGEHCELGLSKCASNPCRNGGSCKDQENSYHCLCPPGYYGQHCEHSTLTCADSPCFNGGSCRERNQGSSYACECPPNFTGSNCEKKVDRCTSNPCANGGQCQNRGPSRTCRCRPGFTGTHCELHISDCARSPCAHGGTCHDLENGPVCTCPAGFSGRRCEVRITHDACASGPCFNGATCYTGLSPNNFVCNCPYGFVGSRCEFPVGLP
T3 sequence (Q61483 18-540 limits assumed, stated change not applied): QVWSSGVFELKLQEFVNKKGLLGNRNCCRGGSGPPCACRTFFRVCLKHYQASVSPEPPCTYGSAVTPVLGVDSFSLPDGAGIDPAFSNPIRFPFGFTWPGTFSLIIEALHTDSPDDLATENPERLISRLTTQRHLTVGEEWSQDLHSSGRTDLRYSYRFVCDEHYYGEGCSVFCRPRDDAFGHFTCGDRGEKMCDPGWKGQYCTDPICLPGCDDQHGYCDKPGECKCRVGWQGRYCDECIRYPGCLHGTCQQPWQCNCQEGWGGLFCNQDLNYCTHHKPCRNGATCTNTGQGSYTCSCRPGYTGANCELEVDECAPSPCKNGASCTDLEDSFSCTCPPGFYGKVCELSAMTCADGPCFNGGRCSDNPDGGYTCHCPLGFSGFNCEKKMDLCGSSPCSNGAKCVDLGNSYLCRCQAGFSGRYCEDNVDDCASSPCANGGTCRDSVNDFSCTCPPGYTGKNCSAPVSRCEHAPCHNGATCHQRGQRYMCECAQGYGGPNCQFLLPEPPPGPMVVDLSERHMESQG
T7 sequence (Q9Y219 27-1080, change not shown): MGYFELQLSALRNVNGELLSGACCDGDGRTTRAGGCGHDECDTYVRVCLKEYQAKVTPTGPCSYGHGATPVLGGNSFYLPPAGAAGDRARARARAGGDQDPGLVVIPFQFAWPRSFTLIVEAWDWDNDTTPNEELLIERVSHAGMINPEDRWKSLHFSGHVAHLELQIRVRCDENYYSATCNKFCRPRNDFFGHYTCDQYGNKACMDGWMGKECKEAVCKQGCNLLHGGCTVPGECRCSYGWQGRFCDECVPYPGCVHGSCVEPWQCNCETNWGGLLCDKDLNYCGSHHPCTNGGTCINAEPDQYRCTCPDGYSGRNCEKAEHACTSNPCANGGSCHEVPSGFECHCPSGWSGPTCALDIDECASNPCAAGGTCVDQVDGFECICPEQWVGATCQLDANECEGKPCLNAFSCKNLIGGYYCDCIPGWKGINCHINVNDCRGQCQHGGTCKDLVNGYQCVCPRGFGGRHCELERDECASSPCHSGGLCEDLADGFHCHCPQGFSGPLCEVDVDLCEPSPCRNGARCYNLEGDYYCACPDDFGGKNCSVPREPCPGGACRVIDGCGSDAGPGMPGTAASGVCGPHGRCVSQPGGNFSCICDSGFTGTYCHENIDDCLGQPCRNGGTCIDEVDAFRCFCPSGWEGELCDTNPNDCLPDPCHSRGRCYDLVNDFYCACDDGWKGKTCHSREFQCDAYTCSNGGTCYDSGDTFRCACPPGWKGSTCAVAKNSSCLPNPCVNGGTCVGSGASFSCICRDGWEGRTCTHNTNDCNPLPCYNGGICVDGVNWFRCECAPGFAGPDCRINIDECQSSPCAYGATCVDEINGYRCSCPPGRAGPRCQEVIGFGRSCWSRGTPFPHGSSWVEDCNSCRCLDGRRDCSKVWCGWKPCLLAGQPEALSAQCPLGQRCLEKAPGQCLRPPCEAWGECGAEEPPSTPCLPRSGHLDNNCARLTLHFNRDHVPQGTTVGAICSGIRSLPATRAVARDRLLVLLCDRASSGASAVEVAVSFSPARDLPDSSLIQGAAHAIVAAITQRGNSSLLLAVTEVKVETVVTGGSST

IC50 [1]: 0.3 to 0.9 nM | IC50, murine Jagged-1 induced murine Notch1 activation co-culture assay (7xCSL firefly luciferase reporter in 293T/murine Notch1 cells) [2]: 7.72 nM | avg IC50, murine Jagged-1 induced murine Notch1 activation co-culture assay (7xCSL firefly luciferase reporter in 293T/murine Notch1 cells) [2]: 9 nM | IC50, human Jagged-1 induced human Notch2 activation co-culture assay (12xCSL firefly luciferase reporter in SK-MEL-28 cells) [3]: 1.69 nM | avg IC50, human Jagged-1 induced human Notch2 activation co-culture assay (12xCSL firefly luciferase reporter in SK-MEL-28 cells) [3]: 2.31 nM | EC50 (read off the curve) [4]: ~0.4 nM | Kd [5]: 0.61 nM | IC50 [11]: 0.39 nM | IC50 [12]: 0.8 nM | IC50 [13]: 0.51 nM | koff [14]: 0.000189 s⁻¹ | kon [14]: 331000 M⁻¹ s⁻¹
B1: anti-hJagged1 mAb 15D11.1 (antibody, V domains shown)
VH: QVTLKESGPVLVKPTETLTLTCTVSGFSLSNAEMGVSWIRQPPGKALEWLAHLFSNDEKSYSTSLKSRLTISKDTSKSQVVLTMTDLDPVDTATYYCARSFNWNYDFDYWGQGTLVTVSS
VL: QSALTQPASVSGSPGQSITISCTGTSSAVGGHNFVSWYQQYPGKAPKLMIYEVSNRPSGVSTRFSGSKSGNTASLTISGLQAEDEADYYCSSYTSSSTWVFGGGTRLTVL
notes: Fully human monoclonal antibody from XenoMouse (XMG2-KL / XMG4-KL) hybridomas; also called iPS:480499; anti-Jag-1 15D11.1
binding result [6]: no binding (tested: about log 1.8 nM (about 60 nM)) | binding result [7]: no binding (tested: about log 1.8 nM (about 60 nM)) | binding result [8]: no binding (tested: about log 1.8 nM (about 60 nM)) | binding result [9]: no binding (tested: about log 1.8 nM (about 60 nM)) | binding result [10]: no binding (tested: about log 1.8 nM (about 60 nM))
